Experimental data taken from patent US20240239860A1 (University of Pennsylvania, published 2024).

Molecular target: T1, dipeptidyl peptidase 4 (DPP-4) (UniProt P27487 39-766, limits assumed)
T1 construct: also called adenosine deaminase complexing protein 2; CD26
Test: inhibition of DPP-4 cleavage of the chromogenic substrate Gly-Pro-pNA

T1 sequence (P27487 39-766 limits assumed): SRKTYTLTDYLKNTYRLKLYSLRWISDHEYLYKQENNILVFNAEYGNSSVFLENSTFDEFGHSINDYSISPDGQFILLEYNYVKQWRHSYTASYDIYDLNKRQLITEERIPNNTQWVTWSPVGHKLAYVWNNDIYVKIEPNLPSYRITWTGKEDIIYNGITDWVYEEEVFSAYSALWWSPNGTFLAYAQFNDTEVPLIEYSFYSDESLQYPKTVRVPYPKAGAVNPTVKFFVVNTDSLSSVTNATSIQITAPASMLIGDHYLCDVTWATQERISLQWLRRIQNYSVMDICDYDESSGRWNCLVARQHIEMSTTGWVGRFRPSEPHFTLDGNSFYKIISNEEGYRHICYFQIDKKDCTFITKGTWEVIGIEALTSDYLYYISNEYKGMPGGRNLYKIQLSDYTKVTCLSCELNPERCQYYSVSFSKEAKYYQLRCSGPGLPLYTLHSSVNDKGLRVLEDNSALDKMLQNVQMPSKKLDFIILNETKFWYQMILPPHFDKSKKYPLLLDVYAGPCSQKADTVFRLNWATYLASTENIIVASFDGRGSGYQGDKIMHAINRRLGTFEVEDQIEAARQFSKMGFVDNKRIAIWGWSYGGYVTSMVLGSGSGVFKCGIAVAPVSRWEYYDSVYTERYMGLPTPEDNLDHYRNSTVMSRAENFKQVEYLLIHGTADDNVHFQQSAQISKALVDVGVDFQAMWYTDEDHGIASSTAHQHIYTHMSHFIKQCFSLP

binding result: no binding (tested: 100 µM)
B1: thio GLP-1 (GLP-1 7-36 with a thioamide at the Ala8-Glu9 scissile bond) (peptide)
peptide: HXEGTFTSDVSSYLEGQAAKEFIAWLVKGR
modifications: thioamide (C=S in place of C=O) at Ala8 (second residue of the peptide), i.e. the bond between Ala8 and Glu9; printed HA*EGTF...
notes: C-terminal amide is called optional; also called GLP-1-A^s8; thioamide-modified GLP-1
